Test results: publication PMC9200632, “Development of spirulina for the manufacture and oral delivery of protein therapeutics” (Nature Biotechnology, 2022)

T1: MBP–FlaA (C. jejuni flagellin FlaA, amino acids 177–482) (Campylobacter jejuni, flagellin A …, biotinylated (EZ-Link NGS-PEG4-Biotin kit) in the BLI)
T1 construct: The biotinylated form was used for BLI; The ELISA methods name the coating protein only as recombinant FlaA; also called recombinant FlaA; recombinant C. jejuni flagellin; source: E. coli BL-21(DE3), purified (Amylose Resin); not shown: MBP, N-terminal, kept
T1 chain: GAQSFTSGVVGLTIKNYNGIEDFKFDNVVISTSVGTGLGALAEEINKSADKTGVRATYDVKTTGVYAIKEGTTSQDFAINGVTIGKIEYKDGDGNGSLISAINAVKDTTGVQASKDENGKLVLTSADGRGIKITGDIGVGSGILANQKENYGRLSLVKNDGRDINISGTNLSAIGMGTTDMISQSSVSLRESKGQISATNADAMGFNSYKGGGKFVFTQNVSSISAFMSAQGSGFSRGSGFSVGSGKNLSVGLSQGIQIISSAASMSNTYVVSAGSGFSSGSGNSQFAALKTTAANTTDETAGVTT

B1: aa682 (VHH)
VHH: QVQLVESGGGLVQAGGSLRVSCTASVSTFSINALGWYRQAPGKARELVAAIGSDGTVYYTDSVKGRFTISRDNAKNTVSLQMSSLKPEDTAVYYCNAAGKRIGSDGSIWFAVASFGSWGQGTQVTVSS
notes: N-terminal methionine removed (intact mass); Monovalent VHH-MBP fusion, predicted MW 54.8 kDa
B2: PP622, monomeric RBD-binding VHH (VHH-72), E. coli-expressed and purified (VHH)
VHH: QVQLQESGGGLVQAGGSLRLSCAASGRTFSEYAMGWFRQAPGKEREFVATISWSGGSTYYTRSVKGRFTISRDNAKNTVYLQMNSLKPDDTAVYYCAAAGLGTVVSEWDYDYDYWGQGTQVTVSS
notes: also called monomeric VHH; source: E. coli, purified (IMAC)
B3: dimeric RBD-binding VHH (VHH-72 on the 5HVZ scaffold) in extract of spirulina strain SP1477 (VHH)
VHH: B2 VHH
notes: as the dimerization motif of m5, named only by its PDB entry 5HVZ; also called dimeric VHH, extracted form; source: spirulina strain SP1477, in extract
B4: PP661, dimeric RBD-binding VHH (VHH-72 on the 5HVZ scaffold), E. coli-expressed and purified (VHH)
VHH: B2 VHH
notes: also called dimeric VHH; source: E. coli, purified (IMAC)
B5: monomeric RBD-binding VHH (VHH-72) in extract of spirulina strain SP1464 (VHH)
VHH: B2 VHH
notes: also called monomeric VHH, extract; source: spirulina strain SP1464, in extract

Columns and labels:
[1] = target: T1, MBP–FlaA (C. jejuni flagellin FlaA, …); assay: BLI; Octet Red96e; biotinylated MBP–FlaA loaded at 100 nM on streptavidin biosensors; purified aa682 from 1 μM to 10 nM in PBS with 1% BSA and 0.05% Tween-20; association 20 s, dissociation 140 s; global fit, 1:1 model; conditions: both partners purified
[2] = target: T2, RBD antigen (SARS-CoV-2 receptor-binding domain) (SARS-CoV-2, variant  …, UniProt P0DTC2); assay: ELISA
T2 construct: source: provided by R. Strong (Fred Hutchinson Cancer Institute)

| Binder | EC50 ([2]; both partners purified) [nM] | EC50 ([2]; one partner purified) [nM] | further results |
| --- | --- | --- | --- |
| B1 | – | – | Kd [1]: 53 nM |
| B2 | 18.3 | – | – |
| B3 | – | 1.29 | – |
| B4 | 0.32 | – | – |
| B5 | – | 52.3 | – |
